# Measured values from IntAct's records for PubMed 19732724.
# B1: Tensin-3 (Homo sapiens), Q68CZ2 (parent)
# chain: MEEGHGLDLTYITERIIAVSFPAGCSEESYLHNLQEVTRMLKSKHGDNYLVLNLSEKRYDLTKLNPKIMDVGWPELHAPPLDKMCTICKAQESWLNSNLQHVVVIHCRGGKGRIGVVISSYMHFTNVSASADQALDRFAMKKFYDDKVSALMQPSQKRYVQFLSGLLSGSVKMNASPLFLHFVILHGTPNFDTGGVCRPFLKLYQAMQPVYTSGIYNVGPENPSRICIVIEPAQLLKGDVMVKCYHKKYRSATRDVIFRLQFHTGAVQGYGLVFGKEDLDNASKDDRFPDYGKVELVFSATPEKIQGSEHLYNDHGVIVDYNTTDPLIRWDSYENLSADGEVLHTQGPVDGSLYAKVRKKSSSDPGIPGGPQAIPATNSPDHSDHTLSVSSDSGHSTASARTDKTEERLAPGTRRGLSAQEKAELDQLLSGFGLEDPGSSLKEMTDARSKYSGTRHVVPAQVHVNGDAALKDRETDILDDEMPHHDLHSVDSLGTLSSSEGPQSAHLGPFTCHKSSQNSLLSDGFGSNVGEDPQGTLVPDLGLGMDGPYERERTFGSREPKQPQPLLRKPSVSAQMQAYGQSSYSTQTWVRQQQMVVAHQYSFAPDGEARLVSRCPADNPGLVQAQPRVPLTPTRGTSSRVAVQRGVGSGPHPPDTQQPSPSKAFKPRFPGDQVVNGAGPELSTGPSPGSPTLDIDQSIEQLNRLILELDPTFEPIPTHMNALGSQANGSVSPDSVGGGLRASSRLPDTGEGPSRATGRQGSSAEQPLGGRLRKLSLGQYDNDAGGQLPFSKCAWGKAGVDYAPNLPPFPSPADVKETMTPGYPQDLDIIDGRILSSKESMCSTPAFPVSPETPYVKTALRHPPFSPPEPPLSSPASQHKGGREPRSCPETLTHAVGMSESPIGPKSTMLRADASSTPSFQQAFASSCTISSNGPGQRRESSSSAERQWVESSPKPMVSLLGSGRPTGSPLSAEFSGTRKDSPVLSCFPPSELQAPFHSHELSLAEPPDSLAPPSSQAFLGFGTAPVGSGLPPEEDLGALLANSHGASPTPSIPLTATGAADNGFLSHNFLTVAPGHSSHHSPGLQGQGVTLPGQPPLPEKKRASEGDRSLGSVSPSSSGFSSPHSGSTISIPFPNVLPDFSKASEAASPLPDSPGDKLVIVKFVQDTSKFWYKADISREQAIAMLKDKEPGSFIVRDSHSFRGAYGLAMKVATPPPSVLQLNKKAGDLANELVRHFLIECTPKGVRLKGCSNEPYFGSLTALVCQHSITPLALPCKLLIPERDPLEEIAESSPQTAANSAAELLKQGAACNVWYLNSVEMESLTGHQAIQKALSITLVQEPPPVSTVVHFKVSAQGITLTDNQRKLFFRRHYPVNSVIFCALDPQDRKWIKDGPSSKVFGFVARKQGSATDNVCHLFAEHDPEQPASAIVNFVSKVMIGSPKKV
# partner: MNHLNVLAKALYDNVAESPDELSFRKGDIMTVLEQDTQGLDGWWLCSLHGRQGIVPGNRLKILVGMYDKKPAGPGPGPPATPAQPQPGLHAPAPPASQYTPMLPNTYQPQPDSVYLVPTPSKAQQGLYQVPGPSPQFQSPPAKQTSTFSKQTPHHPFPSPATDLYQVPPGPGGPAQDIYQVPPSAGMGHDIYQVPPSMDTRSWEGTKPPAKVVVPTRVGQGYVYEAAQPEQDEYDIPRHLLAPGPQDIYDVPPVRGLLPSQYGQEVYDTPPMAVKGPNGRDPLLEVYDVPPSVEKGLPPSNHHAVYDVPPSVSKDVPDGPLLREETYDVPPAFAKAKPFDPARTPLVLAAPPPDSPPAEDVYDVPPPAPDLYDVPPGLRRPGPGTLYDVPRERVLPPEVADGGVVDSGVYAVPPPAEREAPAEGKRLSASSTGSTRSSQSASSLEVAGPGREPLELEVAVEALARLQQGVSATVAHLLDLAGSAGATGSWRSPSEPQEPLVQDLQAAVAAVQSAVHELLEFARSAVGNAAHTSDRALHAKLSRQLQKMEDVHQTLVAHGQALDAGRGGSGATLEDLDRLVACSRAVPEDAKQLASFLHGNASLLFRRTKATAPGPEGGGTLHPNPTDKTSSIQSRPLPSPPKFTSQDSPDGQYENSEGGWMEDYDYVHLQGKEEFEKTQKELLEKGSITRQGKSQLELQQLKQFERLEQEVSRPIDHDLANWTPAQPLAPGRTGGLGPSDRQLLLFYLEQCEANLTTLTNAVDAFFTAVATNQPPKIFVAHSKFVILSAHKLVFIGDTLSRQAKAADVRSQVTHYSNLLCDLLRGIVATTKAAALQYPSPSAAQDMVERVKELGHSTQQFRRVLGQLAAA
# Variants of: B1
# Conditions: with bcar1_human BCAR1, P56945
row,Variant,effect of a mutation on the interaction
1,Y1173F;Y1206F,decreasing interaction
